# Laboratory results from the DeepSol protein solubility set.
# Assay: soluble on expression in E. coli; label from the status in PepcDB or PDB records
row,Sequence,soluble on expression in E. coli
1,MAQTKPIAEQMAALNNSDDTSFAADRSNSLLNATCPARIQNSVDQRKINRSFNDSLSSGYSGKWLRPKREALKITPLAQIDEAPATKRHSSAKDKHTEYKTRLCDAFRREGYCPYNDNCTYAHGQDELRVPRRRQEYYSRDPPRERRDSRSRRDDVDTTINRSSSSASKHHDENRRPSNNHGSSNRRQICHNFERGNCRYGPRCRFIHVEQMQHFNANATVYAPPSSDCPPPIAYYHHHPQHQQQFLPFPMPYFLAPPPQAQQGAPFPVQYIPQQHDLMNSQPMYAPMAPTYYYQPINSNGMPMMDVTIDPNATGGAFEVFPDGFFSQPPPTIIS,not soluble
2,MAQTNLSFNPSPRYKSKKGWYKDTPPKEKGGMPTEVEIAGPIVIENKFIDPKTNTEKLIITDEDQKEIVESSDILTTQKLPSLMKYGFSINEKYTKDLGYALQQMRNQLPISYLYEGVGILETPFGPIVSLSEIYTTKEFDNKSPSDAICDNAYDLTPKGTFDNWFNMYLKEVKGSLLLELAVVFGISALVTSFLKHKHETEFAGIIFSFTGQSSTGKSTAASLAVSVAGNPTKGNETLFRNWNATRNALEGYLSNNFGIPIVFDELSSATFRDTTGLLYSITEGQGRQRSNVHGEVKTPKNWGTSVISTSEHSIFNDSAQNDGLRVRTIEINEQFTTNATNADNIKKAVALNYGHVLPLVAKYLINREDEVIQWFYKEVDWFEAKLKDDKSNTGNRMFKRYAVITTSAKILGRVLATDIDIAKIRDYFIDYHGHTISERSLADKAIDVIIQFVAQNRGKFSDEGALKNMFENYGLISLKDDHIEVKMIANVFKQMLNNHQFQDVNNVVNALRDKGFILADRGRQTTKRSVKDNSGKKQSLVFYHLKLDVEFASILGLTKDKSLIQNWTPANDNKAAKELFKSANEGIGPSGVHEDFLEHHHHHH,not soluble
3,MAQTQLSYKNKTYQISYEILGDLSLPQILILHGWGADKKLMKQSFCPFLKDFCQIYMDLAGFGNSSVEEILNTQDYANITELFLKQKKLNVCFFMGHSFGGKVSTLLAKEKDTLILLSSAGILAKKSLKVRFKIRIFKILKLFGLGKFYRYFASKDGANLSPIMYETFKKVVDEDFSEIFAKQKAKSLIFWGKSDEATPLYCGEKMHQFLKNSTFYPLEGDHFFFLKHSAFIAQKIKEI,not soluble
4,MAQVKAEYDFQSQPNTGELSISAGEVLTVIRENIDGGWIEGRNVRGSVGLFPESYVTPYQASRPPPVLPPPLPPTSSGPPAASSRPFDDWGGASEVAAPPSYGAQHHHQPTPSVPEVTRSSYPSQNDDFDDEWTDEDDEQEPTRPNVQSSIGSNSRRDLSRSHSEHGGPDRGSNKVNKNINRFSNFVKSGVEAYVIGESKTTSQISERHEVVMNNGIIQWKPIQQYYTCIVDKPKKESKLKGLKSFIAYSITSSLTNIQRQVSRRYKHFDWLHEQLSAKYVLIPIPPLPEKQVAGRYEEDLIDHRKHILQLWVNKICRHPVLSQSEVWLHFISCTDEKDWKNGKRRAEKDEYIGGAFLNCITVPHQPLDPNNVDMQVERFQRSVKTSEEAMRVMQERMNMFQKVFAGPVKQNWQKMGSAFKTLQQSFEIDETVASRRLTEALAYTASEYHEIGQVFDAHTKNDMEPVLENLYSYKGTVQNVPDIIQVHKQAVQKFRDSEGRLSSAEAEKMKQRIDAMSYTVIAEVQHQTAEKVEDMKSTMGTYLKKQAMFYQEVATKLTSLAARYD,not soluble
5,MAQWSTMSTADRDFVVRFPTGTSDPLSDAEIQQYREEIDRLDKEILAAVKRRTEISRAIGKTRMGSGGTRLVHTREVAIINQFREEIGEEGPALAGILLRMGRGRLGEAR,not soluble
6,MAQYRPDELARYAQRVMDWLHPDGDLTDTERARKRGITLSNQQYDGMSRLSGYLTPQARATFEAVLAKLAAPGATNPDDHTPVIDTTPDAAAIDRDTRSQAQRNHDGLLAGLRALIASGELGQHNGLPVSIVVTTTLTDLQTGAGKGFTGGGTLLPMADVIRMTSHAHHYSPASGRYPQAIFDHGTPLALYHTKRLASPAQRIMLEHHHHHH,soluble
7,MARFSIEGKSLKLDAITTEDEKSVFAVLLEDDSVKEIVLSGNTIGTEAARWLSENIASKKDLEIAEFSDIFTGRVKDEIPEALRLLLQALLKCPKLHTVRLSDNAFGPTAQEPLIDFLSKHTPLEHLYLHNNGLGPQAGAKIARALQELAVNKKAKNAPPLRSIICGRNRLENGSMKEWAKTFQSHRLLHTVKMVQNGIRPEGIEHLLLEGLAYCQELKVLDLQDNTFTHLGSSALAIALKSWPNLRELGLNDCLLSARGAAAVVDAFSKLENIGLQTLRLQYNEIELDAVRTLKTVIDEKMPDLLFLELNGNRFSEEDDVVDEIREVFSTRGRGELDELDDMEELTDEEEEDEEEEAESQSPEPETSEEEKEDKELADELSKAHI,soluble
8,MARHKCQDCGKTFDLKRYLTKHELRMHKNVVKSKNDRSASDPLKCSMCDKVFPRLSHLQRHQMTHLNVRNYSCTFCEEKFVQKSHLTRHVSRKHSNAPGVEVDWTACDKCGQLFKTTYEMRIHRQTYHELHKCKQCQEVIEAGSDGLRKHHMQCRKYSNVCDECGASFSRPADLVSHETSCLKKFAFVCKPCDSYFRQRVQLDRHIKKAHFHPTKCSKCEQISDTPVQNSRHSLECVKVIICGYCSLKNPDKNHVATVHWHRLKRAVSKSVTIRHKLKDAPIADKDVPSSSGQSSLEEEILDDSEDDLEDTGEGLSNREQFKNRDIKRENNLEEVKSSTDNRDEEDSLFNFPDTSTSQLDFCSTAFTEDDSFPGDYVTLSICPKNTDLSFDLRDRLPPELSELFPELEATSIVLLNKSIRCRMTVRVPVCIPKSSTQEAEMRKWLDMTVVLKDD,not soluble
9,MARIGIRYAEYSAMTVLRYLQAYPPHLQAQVRQMIDSDRLGEYLQRRYPDRHDVQSDKALYGYAQDLRQQYLRSAPNLDKVLFDSRLDLTHRALGLNTAVSRVQGGKLKAKKEIRIASLFKEAAPQFLRMIVVHELAHLRERDHNKAFYQLCQHMEPDYHQLEFDLRVYLTYRELPGNLLEHHHHHH,not soluble
10,MARKRIITPEKKELIRNLISEYNITSAKDLQEALKDLLGDTIQNMLEAELDEHLGYEKYESTEEAKSNYRNGYTSKTLKSSVGQVEIDIPRDRNAEFEPKIVPRYKRDISEIENKIIAMYARGMSTREINEQIQEIYGFEVSAEMVSKITDKILPEIEEWQKRPLGEVIR,soluble
11,MARLEVPRPATFVTLTGFMGVGKSRIGRELARALMLHFIDLDRYIERRTGISIPDIFRHLGEEAFRRMEKEAVRELVGKDYLVLSLGGGTFMDPESQKALLGRGPVVALWASPETILERAMRKPGERPLLQVENPLERIRTLLEARAPVYRKAHIHVSTDGRRVEEVVEEIVEKLWRHAEARGA,soluble
12,MARNVKGYASTLTWTITRNTLNFLWEQGFKMRINREEILDLMKNAPLKELGQRALRVKQRLHPENLTTFIVDRNINYTNICFVDCKFCAFKRTLKEKDAYVLSYEEIDQKIEELLAIGGTQILFQGGVHPQLKIDYYENLVSHIAQKFPTITIHGFSAVEIDYISKISKLSLKEVLERLKNAGLSSIPGAGAEVLSDRVRDVIAPKKLSSDRWIEVHRMAHLCGIKSTATMMFGSVDNEEDVVEHLQRVRDLQDETGGFRAFILWSFQPNNTPLKEEIPSIKKASSNRYLRYLACSRIFLDNIQNIQSSWVTQGSMIGQLALLFGANDLGSVMMEENVVKAAGTSFCMNEAGMIELIEDIGSVAAKRNTAYEILKRYPAKAKV,not soluble
13,MARPIATHDNTFTKAYLQQHCGDLLSFDGQGDLSGWLDDVLTGAGRLNESMASNTKPVSPYLILTQLLTHDTLTVSAVQESLSRKRVALGEPMVSTRYARYVYATVVSASKSVQYHASKAGS,not soluble
14,MARSITMQQRIEFGDCNPAGIVWYPNYHRWLDAASRNYFIKCGLPPWRQTVVERGIVGTPIVSCNASFVCTASYDDVLTIETCIKEWRRKSFVQRHSVSRTTPGGDVQLVMRADEIRVFAMNDGERLRAIEVPADYIELCS,soluble
15,MARTVNLKGNPVTLVGPELKVGDRAPEAVVVTKDLQEKIVGGAKDVVQVIITVPSLDTPVCETETKKFNEIMAGMEGVDVTVVSMDLPFAQKRFCESFNIQNVTVASDFRYRDMEKYGVLIGEGALKGILARAVFIIDKEGKVAYVQLVPEITEEPNYDEVVNKVKELI,not soluble
16,MARVVVDAQAARAIGKGAMIVFKKGVVRVEGDIKPGDIVEVYTRGGKFLGKGFANPNSNIMVRIVTKDKDVEINKDLFKRRIKKANEYRKKVLKYTNVYRMVYGEADYLPGLIVDRFNDIASLQISSAGMERFKLDVAEAIMEVEPGIETVFEKNTGRSRRREGLPEIERVLLGKEKYRTIIQEGRAKFIVDMRGQKTGFFLDQRENRLALEKWVQPGDRVLDVFTYTGGFAIHAAIAGADEVIGIDKSPRAIETAKENAKLNGVEDRMKFIVGSAFEEMEKLQKKGEKFDIVVLDPPAFVQHEKDLKAGLRAYFNVNFAGLNLVKDGGILVTCSCSQHVDLQMFKDMIIAAGAKAGKFLKMLEPYRTQAPDHPILMASKDTEYLKCLFLYVEDMR,soluble
17,MASDGVVVEIGKVTGSVGTTVEIPVYFRGVPSKGIANCDFVFRYDPNVLEIIGIDPGDIIVDPNPTKSFDTAIYPDRKIIVFLFAEDSGTGAYAITKDGVFAKIRATVKSSAPGYITFDEVGGFADNDLVEQKVSFIDGGVNVGNATPTKGATPTNTATPTK,soluble
18,MASETVSNHQEKALALLQADAEKILRLIKVQMDHLTMPQCPLYEEVLDTQMFGLSREVDFAVRLGLIAEEQGKVMLGELERELSALHEAFTNKQQ,not soluble
19,MASGRARCTRKLRNWVVEQVESGQFPGVCWDDTAKTMFRIPWKHAGKQDFREDQDAAFFKAWAIFKGKYKEGDTGGPAVWKTRLRCALNKSSEFKEVPERGRMDVAEPYKVYQLLPPGIVSGQPGTQKVPSKRQHSSVSSERKEEEDAMQNCTLSPSVLQDSLNNEEEGASGGAVHSDIGSSSSSSSPEPQEVTDTTEAPFQGDQRSLEFLLPPEPDYSLLLTFIYNGRVVGEAQVQSLDCRLVAEPSGSESSMEQVLFPKPGPLEPTQRLLSQLERGILVASNPRGLFVQRLCPIPISWNAPQAPPGPGPHLLPSNECVELFRTAYFCRDLVRYFQGLGPPPKFQVTLNFWEESHGSSHTPQNLITVKMEQAFARYLLEQTPEQQAAILSLV,soluble
20,MASGVTVNDEVIKVFNDMKVRKSSTPEEIKKRKKAVLFCLSDDKKQIIVEEAKQILVGDIGDTVEDPYTAFVKLLPLNDCRYALYDATYETKESKKEDLVFIFWAPESAPLKSKMIYASSKDAIKKKFTGIKHEWQVNGLDDIKDRSTLGEKLGGNVVVSLEGKPL,soluble
21,MASIAYGNNNYVIVKRDGKILTSSDGHEWKEKYFLQGGSFTSVTYNGNMFVAAGAYTVALPYGGPLTYGKCVIMTSPDGNNWQLQDAGYNADLKGITWSGKKFAVAGTNIILSSENGITWNAVEVNAILHDIAFGNGIFAAVGYDGVIMSSVDGEHWETKVEALRYDLTNIVWYDNKFIAIGSGSTPSIVVSGDGKTRVARGPKDASYKCDSSLHNVEWRKTGCSRLRQYYSDRRAKGYS,soluble
22,MASIKKVYRGMKNGAETINDDLEAINSELTSGGNVVHKTGDETIAGKKTFTGNVEVNGSLTLPVQTLTVEAGNGLQLQLTKKNNDLVIVRFFGSVSNIQKGWNMSGTWVDRPFRPAAVQSLVGHFAGRDTSFHIDINPNGSITWWGANIDKTPIATRGNGSYFIK,soluble
23,MASLAAVVRALLRRESQRATGYALREWTMLTARHLPYLQGQLTLGRIAAVGHLQRSTLGRSEWHTSSAPLFGEGRGRWHWGLSTSDVVDGSDHEHHSTETGGRELPSFKTGELGSDVDGDRAALEAWLAQIRDETSGWPELSLDALRDELDEELEGDDDDNDDDDDETYENEELLKALQEAVNRHRTPVVALVSGRVVHLRRTAAPKRSPRAGRVPRNEPQTTSRDTTKADANDNECT,soluble
